Experimental data: patent publication US20230110958A1 (Regeneron, published 2023)
Positions count from the first letter of the chain named. Numbers in names are those of the source.

T1: murine IL27 receptor (IL27Ra and gp130) on mouse cells (MC9/STAT3-Luc reporter cells; splenic CD4+ T cells) (mouse, UniProt O70394 25-623; Q00560 23-917)
T1 sequence (looked up) 1: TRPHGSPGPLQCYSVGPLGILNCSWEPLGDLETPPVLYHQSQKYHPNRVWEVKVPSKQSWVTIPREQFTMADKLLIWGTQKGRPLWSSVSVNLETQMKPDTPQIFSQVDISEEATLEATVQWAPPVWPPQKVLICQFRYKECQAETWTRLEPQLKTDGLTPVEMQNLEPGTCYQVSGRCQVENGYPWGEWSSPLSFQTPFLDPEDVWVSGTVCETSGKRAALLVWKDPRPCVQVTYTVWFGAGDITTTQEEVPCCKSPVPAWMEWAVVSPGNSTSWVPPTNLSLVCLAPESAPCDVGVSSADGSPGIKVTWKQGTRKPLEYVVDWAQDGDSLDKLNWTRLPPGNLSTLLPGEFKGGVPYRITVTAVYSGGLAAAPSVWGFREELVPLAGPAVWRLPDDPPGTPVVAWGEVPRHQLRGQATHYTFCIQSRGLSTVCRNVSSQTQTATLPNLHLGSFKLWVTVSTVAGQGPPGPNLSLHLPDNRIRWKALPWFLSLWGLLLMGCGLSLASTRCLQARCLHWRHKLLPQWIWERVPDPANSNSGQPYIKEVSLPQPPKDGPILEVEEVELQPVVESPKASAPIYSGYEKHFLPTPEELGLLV
T1 sequence (looked up) 2: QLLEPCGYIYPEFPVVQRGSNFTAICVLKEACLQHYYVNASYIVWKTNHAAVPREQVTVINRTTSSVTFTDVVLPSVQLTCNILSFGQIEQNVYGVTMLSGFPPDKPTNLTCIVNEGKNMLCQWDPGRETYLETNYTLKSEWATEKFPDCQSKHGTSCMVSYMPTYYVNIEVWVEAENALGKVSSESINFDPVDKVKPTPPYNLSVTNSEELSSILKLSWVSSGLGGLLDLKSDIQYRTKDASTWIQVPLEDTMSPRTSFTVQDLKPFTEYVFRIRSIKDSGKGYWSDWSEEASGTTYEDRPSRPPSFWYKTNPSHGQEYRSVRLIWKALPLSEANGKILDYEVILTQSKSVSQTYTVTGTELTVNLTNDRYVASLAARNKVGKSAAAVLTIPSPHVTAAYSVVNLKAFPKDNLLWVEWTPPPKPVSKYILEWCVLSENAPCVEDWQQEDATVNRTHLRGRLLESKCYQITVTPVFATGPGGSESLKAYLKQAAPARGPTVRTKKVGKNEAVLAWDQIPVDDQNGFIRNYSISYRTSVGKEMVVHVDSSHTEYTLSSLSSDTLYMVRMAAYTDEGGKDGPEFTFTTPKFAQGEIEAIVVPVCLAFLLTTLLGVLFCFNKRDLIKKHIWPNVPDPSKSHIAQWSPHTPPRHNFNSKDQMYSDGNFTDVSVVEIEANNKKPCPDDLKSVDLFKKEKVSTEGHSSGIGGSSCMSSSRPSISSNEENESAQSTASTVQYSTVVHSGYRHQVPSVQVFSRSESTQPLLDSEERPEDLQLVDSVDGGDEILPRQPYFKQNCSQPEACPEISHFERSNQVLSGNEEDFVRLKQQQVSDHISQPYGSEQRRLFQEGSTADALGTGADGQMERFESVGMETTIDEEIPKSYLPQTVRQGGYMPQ

B1: IL27M5, Bivalent Fc-p28-EBI3 (Fc fusion)
chain: ESKYGPPCPPCPAPPVAGPSVFLFPPKPKDTLMISRTPEVTCVVVDVSQEDPEVQFNWYVDGVEVHNAKTKPREEQFNSTYRVVSVLTVLHQDWLNGKEYKCKVSNKGLPSSIEKTISKAKGQPREPQVYTLPPSQEEMTKNQVSLTCLVKGFYPSDIAVEWESNGQPENNYKTTPPVLDSDGSFFLYSRLTVDKSRWQEGNVFSCSVMHEALHNHYTQKSLSLSLGKGGGGSGGGGSGGGGSFPTDPLSLQELRREFTVSLYLARKLLSEVQGYVHSFAESRLPGVNLDLLPLGYHLPNVSLTFQAWHHLSDSERLCFLATTLRPFPAMLGGLGTQGTWTSSEREQLWAMRLDLRDLHRHLRFQVLAAGFKCSKEEEDKEEEEEEEEEEKKLPLGALGGPNQVSSQVSWPQLLYTYQLLHSLELVLSRAVRDLLLLSLPRRPGSAWDSGGGGSGGGGSGGGGSGGGGSGGGGSYTETALVALSQPRVQCHASRYPVAVDCSWTPLQAPNSTRSTSFIATYRLGVATQQQSQPCLQRSPQASRCTIPDVHLFSTVPYMLNVTAVHPGGASSSLLAFVAERIIKPDPPEGVRLRTAGQRLQVLWHPPASWPFPDIFSLKYRLRYRRRGASHFRQVGPIEATTFTLRNSKPHAKYCIQVSAQDLTDYGKPSDWSLPGQVESAPHKP
B2: IL27M6, monovalent Fc-p28 x EBI3 (Fc fusion)
chain 1: ESKYGPPCPPCPAPPVAGPSVFLFPPKPKDTLMISRTPEVTCVVVDVSQEDPEVQFNWYVDGVEVHNAKTKPREEQFNSTYRVVSVLTVLHQDWLNGKEYKCKVSNKGLPSSIEKTISKAKGQPREPQVYTLPPSQEEMTKNQVSLWCLVKGFYPSDIAVEWESNGQPENNYKTTPPVLDSDGSFFLYSRLTVDKSRWQEGNVFSCSVMHEALHNHYTQKSLSLSLGKGGGGSGGGGSGGGGSFPTDPLSLQELRREFTVSLYLARKLLSEVQGYVHSFAESRLPGVNLDLLPLGYHLPNVSLTFQAWHHLSDSERLCFLATTLRPFPAMLGGLGTQGTWTSSEREQLWAMRLDLRDLHRHLRFQVLAAGFKCSKEEEDKEEEEEEEEEEKKLPLGALGGPNQVSSQVSWPQLLYTYQLLHSLELVLSRAVRDLLLLSLPRRPGSAWDS
chain 2: ESKYGPPCPPCPAPPVAGPSVFLFPPKPKDTLMISRTPEVTCVVVDVSQEDPEVQFNWYVDGVEVHNAKTKPREEQFNSTYRVVSVLTVLHQDWLNGKEYKCKVSNKGLPSSIEKTISKAKGQPREPQVYTLPPSQEEMTKNQVSLSCAVKGFYPSDIAVEWESNGQPENNYKTTPPVLDSDGSFFLVSRLTVDKSRWQEGNVFSCSVMHEALHNRFTQKSLSLSPGKGGGGSGGGGSGGGGSYTETALVALSQPRVQCHASRYPVAVDCSWTPLQAPNSTRSTSFIATYRLGVATQQQSQPCLQRSPQASRCTIPDVHLFSTVPYMLNVTAVHPGGASSSLLAFVAERIIKPDPPEGVRLRTAGQRLQVLWHPPASWPFPDIFSLKYRLRYRRRGASHFRQVGPIEATTFTLRNSKPHAKYCIQVSAQDLTDYGKPSDWSLPGQVESAPHKP
B3: IL27M18, 2:2 complex between IL27M17 (Fc-p28) and EBI3-mmh (Fc fusion)
chain 1: B2 chain 1 with W147T
chain 2: YTETALVALSQPRVQCHASRYPVAVDCSWTPLQAPNSTRSTSFIATYRLGVATQQQSQPCLQRSPQASRCTIPDVHLFSTVPYMLNVTAVHPGGASSSLLAFVAERIIKPDPPEGVRLRTAGQRLQVLWHPPASWPFPDIFSLKYRLRYRRRGASHFRQVGPIEATTFTLRNSKPHAKYCIQVSAQDLTDYGKPSDWSLPGQVESAPHKPEQKLISEEDLGGEQKLISEEDLHHHHHH
B4: IL27M17, Bivalent Fc-p28 (Fc fusion)
chain: B2 chain 1 with W147T
B5: IL27M4, Bivalent Fc-EBI3-p28 (Fc fusion)
chain: ESKYGPPCPPCPAPPVAGPSVFLFPPKPKDTLMISRTPEVTCVVVDVSQEDPEVQFNWYVDGVEVHNAKTKPREEQFNSTYRVVSVLTVLHQDWLNGKEYKCKVSNKGLPSSIEKTISKAKGQPREPQVYTLPPSQEEMTKNQVSLTCLVKGFYPSDIAVEWESNGQPENNYKTTPPVLDSDGSFFLYSRLTVDKSRWQEGNVFSCSVMHEALHNHYTQKSLSLSLGKGGGGSGGGGSGGGGSYTETALVALSQPRVQCHASRYPVAVDCSWTPLQAPNSTRSTSFIATYRLGVATQQQSQPCLQRSPQASRCTIPDVHLFSTVPYMLNVTAVHPGGASSSLLAFVAERIIKPDPPEGVRLRTAGQRLQVLWHPPASWPFPDIFSLKYRLRYRRRGASHFRQVGPIEATTFTLRNSKPHAKYCIQVSAQDLTDYGKPSDWSLPGQVESAPHKPGGGGSGGGGSGGGGSGGGGSFPTDPLSLQELRREFTVSLYLARKLLSEVQGYVHSFAESRLPGVNLDLLPLGYHLPNVSLTFQAWHHLSDSERLCFLATTLRPFPAMLGGLGTQGTWTSSEREQLWAMRLDLRDLHRHLRFQVLAAGFKCSKEEEDKEEEEEEEEEEKKLPLGALGGPNQVSSQVSWPQLLYTYQLLHSLELVLSRAVRDLLLLSLPRRPGSAWDS
B6: IL27M14, 2:2 complex between IL27M13 (p28-Fc) and EBI3-mmh (Fc fusion)
chain 1: FPTDPLSLQELRREFTVSLYLARKLLSEVQGYVHSFAESRLPGVNLDLLPLGYHLPNVSLTFQAWHHLSDSERLCFLATTLRPFPAMLGGLGTQGTWTSSEREQLWAMRLDLRDLHRHLRFQVLAAGFKCSKEEEDKEEEEEEEEEEKKLPLGALGGPNQVSSQVSWPQLLYTYQLLHSLELVLSRAVRDLLLLSLPRRPGSAWDSGGGGSGGGGSGGGGSESKYGPPCPPCPAPPVAGPSVFLFPPKPKDTLMISRTPEVTCVVVDVSQEDPEVQFNWYVDGVEVHNAKTKPREEQFNSTYRVVSVLTVLHQDWLNGKEYKCKVSNKGLPSSIEKTISKAKGQPREPQVYTLPPSQEEMTKNQVSLTCLVKGFYPSDIAVEWESNGQPENNYKTTPPVLDSDGSFFLYSRLTVDKSRWQEGNVFSCSVMHEALHNHYTQKSLSLSLGK
chain 2: B3 chain 2
B7: IL27M23, monovalent Fc x EB13-p28 (Y202A, Q203A) (Fc fusion)
chain 1: B5 chain with T147W, Y647A, Q648A
chain 2: ESKYGPPCPPCPAPPVAGPSVFLFPPKPKDTLMISRTPEVTCVVVDVSQEDPEVQFNWYVDGVEVHNAKTKPREEQFNSTYRVVSVLTVLHQDWLNGKEYKCKVSNKGLPSSIEKTISKAKGQPREPQVYTLPPSQEEMTKNQVSLSCAVKGFYPSDIAVEWESNGQPENNYKTTPPVLDSDGSFFLVSRLTVDKSRWQEGNVFSCSVMHEALHNRFTQKSLSLSPGK

The binders below were run against T1, murine IL27 receptor (IL27Ra and gp130) … (assay: cell-based or functional assay).
B1 was tested, and the “EC50 (M), STAT3 luciferase, MC9 cells” value was 4.19e-10 M and the “FOLD INDUCTION, STAT3 luciferase, MC9 cells” value (shortened to “FOLD INDUCTION … MC9 cells”) was 2.91 fold.
With B2 the “EC50 (M), STAT3 luciferase, MC9 cells” value was 3.21e-11 M and the “FOLD INDUCTION … MC9 cells” value was 2.8 fold.
For B3, the “EC50 (M), STAT3 luciferase, MC9 cells” value was 2.36e-10 M and the “FOLD INDUCTION … MC9 cells” value was 2.86 fold.
With B4 the “FOLD INDUCTION … MC9 cells” value was 1.16 fold.
With B5 the “EC50 (M), STAT3 luciferase, MC9 cells” value was 4.71e-10 M and the “FOLD INDUCTION … MC9 cells” value was 2.78 fold.
With B6 the “EC50 (M), STAT3 luciferase, MC9 cells” value was 2.81e-10 M and the “FOLD INDUCTION … MC9 cells” value was 2.71 fold.

Target: T1, murine IL27 receptor (IL27Ra and gp130) …
Test: cell-based or functional assay
Remark: another data set of the same source
In the case of B7, the “EC50 (M), STAT3 luciferase, MC9/STAT3-Luc cells” value is reported as 1.98e-11 M and the “FOLD INDUCTION, STAT3 luciferase, MC9/STAT3-Luc cells” value is reported as 5.34 fold.
